Results: paper PMC9638933
Residue numbers refer to the chain shown, from its start. In names and notes the source's numbering stands.

T1: Ku D247A (Mycobacterium tuberculosis, UniProt P9WKD9 1-273, D247A)
T1 sequence: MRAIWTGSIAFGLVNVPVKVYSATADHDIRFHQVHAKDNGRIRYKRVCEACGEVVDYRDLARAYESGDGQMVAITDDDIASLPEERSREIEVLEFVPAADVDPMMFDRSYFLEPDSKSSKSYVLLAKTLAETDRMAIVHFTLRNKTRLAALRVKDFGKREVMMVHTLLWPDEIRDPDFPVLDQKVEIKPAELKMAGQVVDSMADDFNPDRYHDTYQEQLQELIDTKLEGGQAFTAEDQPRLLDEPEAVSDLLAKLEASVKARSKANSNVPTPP

T2: Ku D250A (Mycobacterium tuberculosis, UniProt P9WKD9 1-273, D250A)
T2 sequence: T1 sequence with A247D, D250A

T3: Ku S258A (Mycobacterium tuberculosis, UniProt P9WKD9 1-273, S258A)
T3 sequence: T1 sequence with A247D, S258A

T4: Ku R262A (Mycobacterium tuberculosis, UniProt P9WKD9 1-273, R262A)
T4 sequence: T1 sequence with A247D, R262A

T5: Ku L251A (Mycobacterium tuberculosis, UniProt P9WKD9 1-273, L251A)
T5 sequence: T1 sequence with A247D, L251A

B1: Mycobacterium tuberculosis Ku L251A (natural protein)
chain: T1 sequence with A247D, L251A
B2: Ku L251A (M. tuberculosis) (natural protein)
chain: T1 sequence with A247D, L251A
modifications: biotinylated with NHS-LC-Biotin for BLI only
B3: Mycobacterium tuberculosis Ku S258A (natural protein)
chain: T1 sequence with A247D, S258A
B4: Mycobacterium tuberculosis Ku R262A (natural protein)
chain: T1 sequence with A247D, R262A
B5: Ku R262A (M. tuberculosis) (natural protein)
chain: T1 sequence with A247D, R262A
modifications: biotinylated with NHS-LC-Biotin for BLI only
B6: Ku D247A (M. tuberculosis) (natural protein)
chain: T1 sequence
modifications: biotinylated with NHS-LC-Biotin for BLI only
B7: Mycobacterium tuberculosis Ku D250A (natural protein)
chain: T1 sequence with A247D, D250A
B8: wildtype Ku (KuWT), Mycobacterium tuberculosis (natural protein)
chain: T1 sequence with A247D
modifications: biotinylated at multiple sites with NHS-LC-Biotin for BLI only (sites listed in Supplementary Table S3)
notes: The His tag is TEV-cleavable; Homodimer by SEC-MALS
B9: Mycobacterium tuberculosis Ku D247A (natural protein)
chain: T1 sequence
notes: The theoretical MW of 33.7 kDa equals that of KuWT
B10: Ku D250A (M. tuberculosis) (natural protein)
chain: T1 sequence with A247D, D250A
modifications: biotinylated with NHS-LC-Biotin for BLI only
B11: Ku S258A (M. tuberculosis) (natural protein)
chain: T1 sequence with A247D, S258A
modifications: biotinylated with NHS-LC-Biotin for BLI only
B12: 40 bp dsDNA (dsDNA)
DNA 1: CAGGGTAAGTGTGGAGGTGTAGGGAAGGGAATGTTGTCTG
DNA 2: CAGACAACATTCCCTTCCCTACACCTCCACACTTACCCTG

Columns and labels:
[1] = target: wildtype Ku (KuWT), Mycobacterium tuberculosis (M. tuberculosis) (UniProt P9WKD9); assay: BLI; Octet RED96, 37°C, 1000 rpm; biotinylated Ku (25 ug/ml) loaded on streptavidin biosensors; LigD, LIG or POL as analyte (12.5 ug/ml), 300 s association, 300 s dissociation; 1x kinetics buffer (0.1% BSA, 0.02% Tween-20, 0.05% sodium azide in PBS); grouped global fit
[2] = target: Mycobacterium tuberculosis Kumin (extended C-terminus removed) (M. tuberculosis) (UniProt P9WKD9); assay: BLI; biotinylated Ku protein (25 ug/ml) loaded on streptavidin biosensors as ligand; 12.5 ug/ml LIG or POL as analyte; 37 C, 1000 rpm; 1x kinetics buffer (0.1% BSA, 0.02% Tween-20, 0.05% sodium azide in PBS); association 300 s, dissociation 300 s; grouped global fit; n = 4 technical replicates
[3] = target: Mycobacterium tuberculosis Kucore (entire C-terminus removed) (M. tuberculosis) (UniProt P9WKD9); assay: as above
[4] = target: the molecule itself; assay: SEC-MALS; 50 uM protein; 50 mM HEPES pH 8.0, 1 mM EDTA, 200 mM NaCl; Superdex 200 Increase 10/300 GL
[5] = target: T6, LigD (wildtype), Mycobacterium tuberculosis (M. tuberculosis, UniProt P9WNV3 1-759); assay: BLI; Octet RED96, 37°C, 1000 rpm; biotinylated Ku (25 ug/ml) loaded on streptavidin biosensors; LigD, LIG or POL as analyte (12.5 ug/ml), 300 s association, 300 s dissociation; 1x kinetics buffer (0.1% BSA, 0.02% Tween-20, 0.05% sodium azide in PBS); grouped global fit; settings: both partners purified
T6 construct: The His tag is TEV-cleavable; also called wildtype LigD

[6] = target: the molecule itself; assay: SEC-MALS; 50 uM protein in 50 mM HEPES pH 8.0, 1 mM EDTA, 200 mM NaCl; Superdex 200 Increase 10/300 GL; MiniDAWN and Optilab
[7] = target: T1, Ku D247A; assay: EMSA; 5 mM Mg2+; settings: protein: recombinant; tags: His (Ni-NTA purified; pMCSG7); chain copies: 2; label: 5' 6-FAM on strand 1; blunt
[8] = target: T2, Ku D250A; assay: EMSA; 5 mM Mg2+; settings: protein: recombinant; tags: His (Ni-NTA purified; pMCSG7); chain copies: 2; label: 5' 6-FAM on strand 1; blunt
[9] = target: T3, Ku S258A; assay: EMSA; 5 mM Mg2+; settings: protein: recombinant; tags: His (Ni-NTA purified; pMCSG7); chain copies: 2; label: 5' 6-FAM on strand 1; blunt
[10] = target: T4, Ku R262A; assay: EMSA; 5 mM Mg2+; settings: protein: recombinant; tags: His (Ni-NTA purified; pMCSG7); chain copies: 2; label: 5' 6-FAM on strand 1; blunt
[11] = target: T5, Ku L251A; assay: EMSA; 5 mM Mg2+; settings: protein: recombinant; tags: His (Ni-NTA purified; pMCSG7); chain copies: 2; label: 5' 6-FAM on strand 1; blunt

T6 sequence (P9WNV3 whole entry): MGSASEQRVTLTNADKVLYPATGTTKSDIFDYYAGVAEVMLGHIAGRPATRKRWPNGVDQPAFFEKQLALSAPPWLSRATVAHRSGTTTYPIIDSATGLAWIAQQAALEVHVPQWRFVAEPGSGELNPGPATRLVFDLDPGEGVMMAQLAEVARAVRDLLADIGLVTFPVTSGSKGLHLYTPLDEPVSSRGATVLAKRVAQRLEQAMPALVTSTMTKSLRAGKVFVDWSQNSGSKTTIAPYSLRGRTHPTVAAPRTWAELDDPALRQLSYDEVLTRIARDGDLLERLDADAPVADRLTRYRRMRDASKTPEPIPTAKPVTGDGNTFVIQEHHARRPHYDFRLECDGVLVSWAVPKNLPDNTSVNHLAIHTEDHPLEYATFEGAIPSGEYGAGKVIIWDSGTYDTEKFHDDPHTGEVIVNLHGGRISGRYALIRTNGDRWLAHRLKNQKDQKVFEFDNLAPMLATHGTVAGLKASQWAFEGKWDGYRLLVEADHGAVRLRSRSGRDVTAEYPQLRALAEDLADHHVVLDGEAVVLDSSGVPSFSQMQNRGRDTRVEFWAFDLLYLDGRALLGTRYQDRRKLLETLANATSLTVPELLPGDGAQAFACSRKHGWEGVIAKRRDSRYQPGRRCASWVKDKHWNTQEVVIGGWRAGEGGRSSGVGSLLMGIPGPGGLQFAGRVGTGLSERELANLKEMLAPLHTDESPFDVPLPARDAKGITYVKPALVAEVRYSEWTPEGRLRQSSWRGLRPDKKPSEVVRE

Row | Molecule | stoichiometry N [4] | Kd [5] [nM] | stoichiometry N [6] | also measured
1 | LigD ligase domain (LIG), Mycobacterium tuberculosis (domain or fragment) | – | – | – | Kd [1]: 81.4 nM
2 | polymerase domain of Mycobacterium tuberculosis LigD (domain or fragment) | – | – | – | Kd [2]: 774 nM; Kd [3]: 291 nM
3 | ligase domain of Mycobacterium tuberculosis LigD (domain or fragment) | – | – | – | Kd [2]: 571 nM; Kd [3]: 274 nM
4 | LigD polymerase domain (POL), Mycobacterium tuberculosis (domain or fragment) | – | – | – | Kd [1]: 52.7 nM
5 | B1 | 2 | – | – | –
6 | B2 | – | 134 | 2 | –
7 | B3 | 2 | – | – | –
8 | B4 | 2 | – | – | –
9 | B5 | – | 125 | 2 | –
10 | B6 | – | 189 | 2 | –
11 | B7 | 2 | – | – | –
12 | B8 | – | 196 | 2 | –
13 | B9 | 2 | – | – | –
14 | B10 | – | 219 | 2 | –
15 | B11 | – | 258 | 2 | –
16 | B12 | – | – | – | Kd [7]: 160 ± 10 nM; Kd [8]: 140 ± 10 nM; Kd [9]: 1340 ± 290 nM; Kd [10]: 140 ± 10 nM; Kd [11]: 1300 ± 190 nM
